Earlier results on 1 substance are cited in PMC5874834.

The Kd is the concentration at which binding is half-saturated.

The data set deals with VEGF165 VEGF165 (Homo sapiens) (UniProt P15692).
Chain of UniProt P15692 (P15692 207-321, chain 1 of 2): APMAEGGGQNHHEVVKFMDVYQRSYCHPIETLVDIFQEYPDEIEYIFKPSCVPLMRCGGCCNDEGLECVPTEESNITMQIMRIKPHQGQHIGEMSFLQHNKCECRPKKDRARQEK
Chain of UniProt P15692 (P15692 346-395, chain 2 of 2): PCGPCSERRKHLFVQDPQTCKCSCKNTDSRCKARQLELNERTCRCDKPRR

Brolucizumab scFv: the Kd was 1.6 pM.
